{"source": "paper PMC7076025", "about": "“A unique DNA-binding mode of African swine fever virus AP endonuclease”", "binders": {"B1": {"name": "DNA-2 (dsDNA)", "DNA 1": "GCAGCGTCACCGACGAAA", "DNA 2": "CCTCGTCGGGGACGCTGC"}}, "molecular_target": "T1, AsfvAP WT (African swine fever virus, UniProt P0C9C6 1-296)", "T1 sequence": "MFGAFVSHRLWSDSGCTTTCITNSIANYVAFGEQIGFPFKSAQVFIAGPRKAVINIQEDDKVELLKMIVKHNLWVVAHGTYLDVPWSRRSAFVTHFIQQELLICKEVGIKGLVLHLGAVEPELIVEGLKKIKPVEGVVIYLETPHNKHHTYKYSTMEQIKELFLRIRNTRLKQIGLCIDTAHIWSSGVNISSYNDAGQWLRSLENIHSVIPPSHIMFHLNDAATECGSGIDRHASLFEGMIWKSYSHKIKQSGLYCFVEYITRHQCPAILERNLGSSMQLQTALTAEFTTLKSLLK", "experiment": "X-ray crystallography", "details": "protein: recombinant; tags: His-SUMO removed with Ulp1; GSGGG linker encoded before M1", "data": [{"binder": "B1", "values": [{"measurement": "binding result", "result": "binds"}]}]}
